Measured values reported in article PMC3282893.
pKd: −log10 of the molar value.

Molecular target: human IgG1 (solid phase in surface plasmon resonance) (human)
Assay: SPR

pKd: 3.30
Substance: soluble recombinant FcγRIIa-HR (high-responder, arginine R134 allele of FcγRIIa), glycosylated (from UniProt P12318 37-206) (receptor)
